Non-standard residues stand in square brackets, D forms with d. Me3N+ = N-terminal trimethylammonium
How the values were obtained:
Format in all cases: physicochemical
[1] = Stability of motilin-like peptide following autoclaving and storage (HPLC, undegraded peptide remaining); conditions: 30 μg/ml in 10 mM sodium acetate buffer, pH 5.0; Type I glass vials; autoclaved at 121° C. for 15 minutes; storage for 3 months at 55° C.
Experimental: The motilin-like peptide of SEQ ID NO.: 1 was dissolved at a concentration of 30 μg/ml in 10 mM sodium acetate buffer, pH 5.0. Samples of the peptide solution stored in Type I glass vials were autoclaved at 121° C. for 15 minutes and the autoclaved samples were incubated at 5° C., 25° C., 40° C., or 55° C. The potency of the peptide following storage at each temperature was measured over time by testing samples after incubation of one week, two weeks, three weeks, one month and three months. Potency was determined by using HPLC to measure the amount of undegraded peptide remaining in each sample.
It will be appreciated by those skilled in the art that stability data obtained at such elevated temperatures (i.e., accelerated storage conditions) may be used to predict stability at lower, more typical storage temperatures over extended periods of time.

[2] = Stability of lyophilized formulations of motilin-like peptide compositions (HPLC after reconstitution in water); conditions: 30 μg/ml in 10 mM citrate buffer, 1% w/v sucrose, pH 6.0, stored in 20 ml vial at 40° C. for several months, reconstituted in water
Experimental: The motilin-like peptide including SEQ ID NO.: 1 was dissolved at a concentration of 30 μg/ml in 10 mM citrate buffer and 1% w/v of sucrose (bulking agent) at pH 6.0. The composition was lyophilized by standard techniques and stored in a 20 ml vial at 40° C. The potency of the motilin-like peptide was measured at the time intervals indicated in FIG. 5, by reconstituting the composition in water. Potency was determined by using HPLC to measure the amount of undegraded peptide remaining in each sample. […] Again, it will be appreciated by those skilled in the art that the stability of pharmaceutical compositions at elevated temperatures, such as 40° C. as in FIG. 5, may serve as the basis of prediction of stability for longer periods at more typical storage temperatures, such as approximately 20° C.-25° C. or 4° C.-8° C., for example.

[3] = Stability profile of aqueous composition stored in Schott Type 1 glass vials (FIGS. 3 and 4); conditions: Schott Type 1 vials
Source text: Some plastics have also proven to be effective in assisting in the stabilization of the peptide composition. In this regard, preferred plastics are cyclic olefin copolymers, available, for example, from West Pharmaceuticals under the product name CZ resin vials, or from Schott under the product name TopPac vials, or from Alcan packaging under the product name Ticona Topas serum vials. The compositions of the present invention may also be stored in PVC, as well as non-PVC flexible bags. When stored in the above described glass or plastic containers, the above-described storage times at the above-described storage temperatures can be achieved, although for storage periods of at least 18 months, Type I Plus (vapor treated silicon) vials and Type I Plus glass ampules are preferred. […] It will be appreciated by those skilled in the art that the measured stability of pharmaceutical compositions at elevated temperatures, such as 40° C. or higher, may serve as the basis of prediction of stability for longer periods at more typical storage temperatures, such as 20°-25° C. or 4°-8° C., for example. Such “accelerated storage” studies are common in the field of the present invention.

[4] = Degradation during storage as a function of composition pH; conditions: pH approximately 3 to 9, most preferably approximately 4.8-5.2
Experimental: In one embodiment, where the composition is provided in a “ready-to-use” form, the motilin-like peptide is dissolved in a buffer solution to provide an aqueous composition. […] More preferably, the pH of the pharmaceutical compositions is between approximately 4 and 6, more preferably 4.5 and 5.5 and, most preferably, between approximately 4.8-5.2. At these pH levels, the peptide of SEQ. ID. […] (The preferred pH of the composition may also be determined, in part, based on whether the composition is prepared as an aqueous composition or a lyophilized formulation, discussed below.)

(Me3N) ^+Phe-Val-Pro-Ile-Phe-Thr-Tyr-Gly-Glu-Leu-Gln-D-Arg-Leu-Lys-NH2 ({Me3N+}-FVPIFTYGELQ[dR]LK-NH2) [SEQ ID NO.: 1, synthetic motilin-like peptide receptor agonist]
potency retained (amount of undegraded peptide remaining by HPLC) [1]: greater than 90% | potency retained (amount of undegraded peptide remaining by HPLC) [2]: greater than 90% | stability (maintenance of high levels of potency) ([3]; 30 μg/ml, several months at 5° C. to 55° C. (FIG. 4)): demonstrated stability | stability (maintenance of high levels of potency) ([3]; approximately 5 μg/ml, several months at 5° C. to 55° C. (FIG. 3)): demonstrated stability | degradation during storage [4]: only minimal degradation

Reference: patent publication US20060293243A1, “Stable, buffered, pharmaceutical compositions including motilin-like peptides” (priority 2005, published 2006)
